# From US20030092037A1, “Elk1 phosphorylation related gene” (priority 2001, published 2003)
# System: MAP kinase cascade activation
# Experiment: Reporter activity reflecting MAP kinase cascade activation, corrected using an internal control (Elk1-GAL4 luciferase reporter in 293-EBNA cells)
# Assay type: cell-based, human
# Settings: for Reporter activity corrected with internal control, as a factor of null vector (S/B value): 293-EBNA cells, 24 hours; for Dependence of corrected reporter activity on amount of expression plasmid: plasmid 12.5 ng, 25 ng, 50 ng and 100 ng
# Description: (in the presence of 5% CO2). […] The method used for introduction was in accordance with the attached protocol. After culturing for 24 hours at 37° C., reporter activity (firefly luciferase acitivity), which reflects MAP kinase cascade activation, and reporter activity being the internal control (sea pansy luciferase) were measured using Picagene Dual (purchased from Toyo Ink Manufacturing) in accordance with the manufacturer's instructions.
# Luciferase activity was measured with Perkin Elmer's Wallac ARVOTMST 1420 MULTILABEL COUNTER.
# Reporter activity where an expression plasmid comprising the above gene was introduced, which reflects MAP kinase cascade activation corrected with internal control reporter activity, is shown in Table 1, which is expressed as a factor of the same reporter activity where a null vector was introduced (S/B value).
molecule,measurement,setting,value
"12 (protein, listed as Homo sapiens) MDHHQPGTGRYQVLLNEEDNSESSAIEQPPTSNPAPQIVQAASSAPALETDSSPPPYSSITVEVPTTSDTEVYGEFYPVPPPYSVATSLPTYDEAEKAKAAAMAAAAAETSQRIQEEECPPRDDFSDADQLRVGNDGIFMLAFFMAFIFNWLGFCLSFCITNTIAGRYGAICGFGLSLIKWILIVRFSDYFTGYFNGQYWLWWIFLVLGLLLFFRGFVNYLKVRNMSESMAAAHRTRYFFLL","Reporter activity corrected with internal control, as a factor of null vector (S/B value)",25 ng/well expression plasmid,2.1
same,"Reporter activity corrected with internal control, as a factor of null vector (S/B value)",50 ng/well expression plasmid,2.7
same,"Reporter activity corrected with internal control, as a factor of null vector (S/B value)",100 ng/well expression plasmid,3.9
same,Dependence of corrected reporter activity on amount of expression plasmid,,increases that were dependent on the amount of expression plasmid
"30 (protein, listed as Homo sapiens) MDARWWAVVVLAAFPSLGAGGETPEAPPESWTQLWFFRFVVNAAGYASFMVPGYLLVQYFRRKNYLETGRGLCFPLVKACVFGNEPKASDEVPLAPRTEAAETTPMWQALKLLFCATGLQVSYLTWGVLQERVMTRSYGATATSPGERFTDSQFLVLMNRVLALIVAGLSCVLCKQPRHGAPMYRYSFASLSNVLSSWCQYEALKFVSFPTQVLAKASKVIPVMLMGKLVSRRSYEHWEYLTATLISIGVSMFLLSSGPEPRSSPATTLSGLFTVGSLLEQGALLEGTRFMGRHSEFAAHALLLSICSACGQLFIFYTIGQFGAAVFTIIMTLRQAFAILLSCLLYGHTVTVVGGLGVAVVFAALLLRVYARGRLKQRGKKAVPVESPVQKV","Reporter activity corrected with internal control, as a factor of null vector (S/B value)",25 ng/well expression plasmid,4.2
same,"Reporter activity corrected with internal control, as a factor of null vector (S/B value)",50 ng/well expression plasmid,6.3
same,"Reporter activity corrected with internal control, as a factor of null vector (S/B value)",100 ng/well expression plasmid,7.6
same,Dependence of corrected reporter activity on amount of expression plasmid,,increases that were dependent on the amount of expression plasmid
"26 (protein, listed as Homo sapiens) MALALAALAAVEPACGSRYQQLQNEEESGEPEQAAGDAPPPYSSISAESAAYFDYKDESGFPKPPSYNVATTLPSYDEAERTKAEATIPLVPGRDEDFVGRDDFDDADQLRIGNDGIFMLTFFMAFLFNWIGFFLSFCLTTSAAGRYGAISGFGLSLIKWILIVRFSTYFPGYFDGQYWLWWVFLVLGFLLFLRGFINYAKVRKMPETFSNLPRTRVLFIY","Reporter activity corrected with internal control, as a factor of null vector (S/B value)",25 ng/well expression plasmid,1.6
same,"Reporter activity corrected with internal control, as a factor of null vector (S/B value)",50 ng/well expression plasmid,3.2
same,"Reporter activity corrected with internal control, as a factor of null vector (S/B value)",100 ng/well expression plasmid,4.1
same,Dependence of corrected reporter activity on amount of expression plasmid,,increases that were dependent on the amount of expression plasmid
"28 (protein, listed as Homo sapiens) MTSFEDADTEETVTCLQMTVYHPGQLQCGIFQSISFNREKLPSSEVVKFGRNSNICHYTFQDKQVSRVQFSLQLFKKFNSSVLSFEIKNMSKKTNLIVDSRELGYLNKMDLPYRCMVRFGEYQFLMEKEDGESLEFFETQFILSPRSLLQENNWPPHRPIPEYGTYSLCSSQSSSPTEMDENES","Reporter activity corrected with internal control, as a factor of null vector (S/B value)",25 ng/well expression plasmid,1.8
same,"Reporter activity corrected with internal control, as a factor of null vector (S/B value)",50 ng/well expression plasmid,2.3
same,"Reporter activity corrected with internal control, as a factor of null vector (S/B value)",100 ng/well expression plasmid,2.9
same,Dependence of corrected reporter activity on amount of expression plasmid,,increases that were dependent on the amount of expression plasmid
"18 (protein, listed as Homo sapiens) MPVQLSEHPEWNESMHSLRISVGGLPVLASMTKAADPRFRPRWKVILTFFVGAAILWLLCSHRPAPGRPPTHNAHNWRLGQAPANWYNDTYPLSPPQRTPAGIRYRIAVIADLDTESRAQEENTWFSYLKKGYLTLSDSGDKVAVEWDKDHGVLESHLAEKGRGMELSDLIVFNGKLYSVDDRTGVVYQIEGSKAVPWVILSDGDGTVEKGFKAEWLAVREIVRKRWRLVKQVSHVGVLGQWIQR","Reporter activity corrected with internal control, as a factor of null vector (S/B value)",25 ng/well expression plasmid,1.8
same,"Reporter activity corrected with internal control, as a factor of null vector (S/B value)",50 ng/well expression plasmid,2.3
same,"Reporter activity corrected with internal control, as a factor of null vector (S/B value)",100 ng/well expression plasmid,2.9
same,Dependence of corrected reporter activity on amount of expression plasmid,,increases that were dependent on the amount of expression plasmid
"6 (protein, listed as Homo sapiens) MEGPGLGSQCRNHSHGPHPPGFGRYGICAHENKELANAREALPLIEDSSNCDIVKATQYGIFERCKELVEAGYDVRQPDKENVSLLHWAAINNRLDLVKFYISKGAVVDQLGGDLNSTPLHWAIRQGHLPMVILLLQHGADPTLIDGEGFSSIHLAVLFQHMPIIAYLISKGQSVNMTDVNGQTPLMLSAHKVIGPEPTGFLLKFNPSLNVVDKIHQNTPLHWAVAAGNVNAVDKLLEAGSSLDIQNVKGETPLDMALQNKNQLIIHMLKTEAKMRANQKFRLWRWLQKCELFLLLMLSVITMWAIGYILDFNSDSWLLKGCLLVTLFFLTSLFPRFLVGYKNLVYLPTAFLLSSVFWIFMTWFILFFPDLAGAPFYFSFIFSIVAFLYFFYKTWATDPGFTKASEEEKKVNIITLAETGSLDFRTFCTSCLIRKPLRSLHCHVCNCCVARYDQHCLWTGRCIGFGNHHYYIFFLFFLSMVCGWIIYGSFIYLSSHCATTFKEDGLWTYLNQIVACSPWVLYILMLATFHFSWSTFLLLNQLFQIAFLGLTSHERISLQKQSKHMKQTLSLRKTPYNLGFMQNLADFFQCGCFGLVKPCVVDWTSQYTMVFHPAREKVLRSV","Reporter activity corrected with internal control, as a factor of null vector (S/B value)",25 ng/well expression plasmid,2.1
same,"Reporter activity corrected with internal control, as a factor of null vector (S/B value)",50 ng/well expression plasmid,2.4
same,"Reporter activity corrected with internal control, as a factor of null vector (S/B value)",100 ng/well expression plasmid,2.9
same,Dependence of corrected reporter activity on amount of expression plasmid,,increases that were dependent on the amount of expression plasmid
"16 (protein, listed as Homo sapiens) MSSLGGGSQDAGGSSSSSTNGSGGSGSSGPKAGAADKSAVVAAAAPASVADDTPPPERRNKSGIISEPLNKSLRRSRPLSHYSSFGSSGGSGGGSMMGGESADKATAAAAAASLLANGHDLAAAMAVDKSNPTSKHKSGAVASLLSKAERATELAAEGQLTLQQFAQSTEMLKRVVQEHLPLMSEAGAGLPDMEAVAGAEALNGQSDFPYLGAFPINPGLFIMTPAGVFLAESALHMAGLAEYPMQGELASAISSGKKKRKRCGMCAPCRRRINCEQCSSCRNRKTGHQICKFRKCEELKKKPSAALEKVMLPTGAAFRWFQ","Reporter activity corrected with internal control, as a factor of null vector (S/B value)",25 ng/well expression plasmid,3.4
same,"Reporter activity corrected with internal control, as a factor of null vector (S/B value)",50 ng/well expression plasmid,8.4
same,"Reporter activity corrected with internal control, as a factor of null vector (S/B value)",100 ng/well expression plasmid,8.1
same,Dependence of corrected reporter activity on amount of expression plasmid,,increases that were dependent on the amount of expression plasmid
